Molecular target: T1, Spermine synthase (Homo sapiens, UniProt P52788)
T1 chain: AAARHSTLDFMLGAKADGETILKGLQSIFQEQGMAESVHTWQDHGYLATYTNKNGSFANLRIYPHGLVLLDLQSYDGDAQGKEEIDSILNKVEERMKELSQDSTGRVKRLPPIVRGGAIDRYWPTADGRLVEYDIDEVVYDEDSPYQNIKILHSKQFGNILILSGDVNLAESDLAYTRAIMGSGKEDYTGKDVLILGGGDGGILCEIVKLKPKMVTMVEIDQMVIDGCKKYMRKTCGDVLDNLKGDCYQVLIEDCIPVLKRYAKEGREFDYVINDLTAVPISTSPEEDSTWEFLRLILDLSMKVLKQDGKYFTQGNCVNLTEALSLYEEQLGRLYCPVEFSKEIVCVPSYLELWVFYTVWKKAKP
Experiment: MST

B1: Myosin Va GTD (protein)
chain: MENISPGQIIDEPIRPVNIPRKEKDFQGMLEYKKEDEQKLVKNLILELKPRGVAVNLIPGLPAYILFMCVRHADYLNDDQKVRSLLTSTINSIKKVLKKRGDDFETVSFWLSNTCRFLHCLKQYSGEEGFMKHNTSRQNEHCLTNFDLAEYRQVLSDLAIQIYQQLVRVLENILQPMIVSGMLEHETIQGVSGVKPTGLRKRTSSIADEGTYTLDSILRQLNSFHSVMCQHGMDPELIKQVVKQMFYIIGAITLNNLLLRKDMCSWSKGMQIRYNVSQLEEWLRDKNLMNSGAKETLEPLIQAAQLLQVKKKTDDDAEAICSMCNALTTAQIVKVLNLYTPVNEFEERVSVSFIRTIQMRLRDRKDSPQLLMDAKHIFPVTFPFNPSSLALETIQIPASLGLGFISRV
**Q.** How did the Kd turn out when B1 was run?
**A.** Its Kd is 3.5 µM.

Reference: paper PMC6488853 (2019)
